Laboratory results taken from the nanobody polyreactivity screen of Harvey et al. (2022).

Experiment: yeast display, Sf9 membrane polyspecificity reagent, FACS + sequencing; frameworks hold sequencing errors
Outline: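 In a synthetic yeast display library (Saccharomyces cerevisiae BJ5465), nanobody expression was induced with galactose for 36–48 hours. FACS gates were set low and high (top ~1%) using anti-HA fluorescence for expression and streptavidin fluorescence for binding of the Sf9 membrane reagent. Each polyreactivity label is drawn from the gate of origin.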
In the case of “QVQLVESGGGLVQAGGSLRLSCAASGNTFRINAMGWYRQAPGKERELVAAISRSTGRTYYADSVKGRFTISRDNAKNTVYLQMNSLKPEDTAVYYCAAGYTGQEHDYWGLGTQVTVSS”, the “polyreactivity (PSR sort gate)” value is reported as “high polyreactivity”. In the case of “QVQLVESGGGLVQAGGSLRLSCAASGNTFRPYAMGWYRQAPGKERELVARIRYGGGSTYYADSVKGRFTISRDNAKNTVYLQMNSLKPEDTAVYYCAVYRDQYRNFYYWGLGTQVTVSS”, the “polyreactivity (PSR sort gate)” value is reported as “high polyreactivity”. For “QVQLVESGGGLVQAGGSLRLSCAASGNTFRRYAMGWYRQAPGKERELVAAITGGTRTYYADSVKGRFTISRDNAKNTVYLQMISLKPEDTAVYYCAARLTSRSYRYDYWGQGTQVTVSS”, the “polyreactivity (PSR sort gate)” value was “high polyreactivity”. In the case of “QVQLVESGGGLVQAGGSLRLSCAASGNTFRWYAMGWYRQAPGKEREFVADITVRGGSTYYADSVKGRFTISRDNAKNTVYLQMNSLKPEDTAVYYCASYHYYTYDYWGQGTQVTVSS”, the “polyreactivity (PSR sort gate)” value is reported as “low polyreactivity”. For “QVQLVESGGGLVQAGGSLRLSCAASGNTFRWYAMGWYRQAPGKERELVAAITWSGGSTYYADSVKGRFTISRDNAKNPVYLQMNSLKPEDTAVYYCAARRWAGEYDYWGQGTQVTVSS”, the “polyreactivity (PSR sort gate)” value was “low polyreactivity”. In the case of “QVQLVESGGGLVQAGGSLRLSCAASGNTFSQYAMGWSRQAPGKERELVATISKSSGSTSYADSVKGRFTISRDNAKNTVYLQMNSLKPEDTAVYYCNADSSDVYHHLGVLFFSTWYDYWGQGTQVTVSS”, the “polyreactivity (PSR sort gate)” value is reported as “low polyreactivity”. For “QVQLVESGGGLVQAGGSLRLSCAASGNTFSVYTMGWYRQAPGKERELVAAITRGGDSTYYADSVKGRFTISRDNAKNTVYLQMNSLKPEDTAVYYCAADHDGPYAGYDSWGQGTQVTVSS”, the “polyreactivity (PSR sort gate)” value was “low polyreactivity”. With “QVQLVESGGGLVQAGGSLRLSCAASGNTFSYNAMGWYRQAPGKEKELVAGITWSGGSTYYADSVKGRFTISRDNAKNTVYLQMNSLKPEDTAVYYCAKGYGSGVVRSRWSKYGYWGQGTQVTVSS” the “polyreactivity (PSR sort gate)” value was “high polyreactivity”. For “QVQLVESGGGLVQAGGSLRLSCAASGNTFTAYVMGWYRQAPGKERELVAGISGRGSSTYYADSVKGRFTISRDNAKNTVYLQMNSLKQEDTAVYYCAAVRTLRTWVYGRYDYWGQGTQVTVSS”, the “polyreactivity (PSR sort gate)” value was “high polyreactivity”. In the case of “QVQLVESGGGLVQAGGSLRLSCAASGNTFTKYAMGWYIQAPGKERELVAGITRGGSTNYADSVKGRFTISRDNAKNTVYLQMNSLKPEDTAVYYCNARPVYGSRFYSAVRMEYWGQGTPVTVSS”, the “polyreactivity (PSR sort gate)” value is reported as “low polyreactivity”. In the case of “QVQLVESGGGLVQAGGSLRLSCAASGNTFTRNAMGWYRQAPGKERELVAAISYSGGSTYYADSVKGRFTISRDNAKNTVYLQMNSLKPEDTAVYYCATKYYDRFSPYRGDYWGQGTQVTVSS”, the “polyreactivity (PSR sort gate)” value is reported as “low polyreactivity”. In the case of “QVQLVESGGGLVQAGGSLRLSCAASGNTFVFYAMGWYRQAPGKERELVAAIDTGGTTNYADSVKGRFTISRDNAKNTVYLQMNSLKPEDTAVYYCAKRRLYWSGQGWVRTYGYWGQGTQVTVSS”, the “polyreactivity (PSR sort gate)” value is reported as “high polyreactivity”. For “QVQLVESGGGLVQAGGSLRLSCAASGNTFVFYTMGWSRQAPGKERELVAAITSSGVRTSYADSVKGRFSISRDNAKNTVYLQMNSLKPEDTAVYYCAASLRASPSFGYWGQGTQVTVSS”, the “polyreactivity (PSR sort gate)” value was “high polyreactivity”. With “QVQLVESGGGLVQAGGSLRLSCAASGNTFVGYTMGWYRHAPGKERELVAAISWNGGTTYYADSVKGRFTISRDNAKNTVYLQMNSLKPEDTAVYYCNTRWYTRRFDYWGQGTQVTVSS” the “polyreactivity (PSR sort gate)” value was “high polyreactivity”. For “QVQLVESGGGLVQAGGSLRLSCAASGNTFVSNAMGWYRQAPGKERELVAAIDSGGSTNYADSVKGRFTISRDNAKNTVYLQMNRLKPEDTAVYYCNRTSVYYYYWGQGTQVTVSS”, the “polyreactivity (PSR sort gate)” value was “low polyreactivity”. In the case of “QVQLVESGGGLVQAGGSLRLSCAASGNTFWDNAMGWYRQAPGKERELVAAIRWSTASTHYADSVKGRFTISRDNAKNTVYFPMNSLKPEDTAVYYCAATDYYYYRDKYYGYDNWGQGTQVTVSS”, the “polyreactivity (PSR sort gate)” value is reported as “low polyreactivity”. For “QVQLVESGGGLVQAGGSLRLSCAASGNTFYANTMGWYRQARTERELVAAITSGTYADSVKGRFTISRDNAKNTVYLQMNSLKPEDTAVYYCAREESLYVTDPGPSKLDYWGQGTQVTVSS”, the “polyreactivity (PSR sort gate)” value was “low polyreactivity”. For “QVQLVESGGGLVQAGGSLRLSCAASGNTFYGYAMGWYRQAPGKDRELVASITLSGDSTYYADSVKGRFTISRDNAKNTVYLQMNSLKQEDTAVYYCAGVYTYPLGYYHYTYDYWGQGTQVTVSS”, the “polyreactivity (PSR sort gate)” value was “low polyreactivity”. With “QVQLVESGGGLVQAGGSLRLSCAASGNTFYGYAMGWYRQAPGKERVLVATIDSGGSTNYADSVKGRFTISRDNAKNTVYFQMNSLKPEDTAVYYCAADGVWYYNDMDYWGQGTQVTVSS” the “polyreactivity (PSR sort gate)” value was “low polyreactivity”. For “QVQLVESGGGLVQAGGSLRLSCAASGNTFYGYVMGWYRQAPGKERELVAAISWSGGRTYYADSVKGRFTISRDNAKNTVYLQMNSLKPEDTAVYYCAAVLLYYIYDYWGQGTQVTVSS”, the “polyreactivity (PSR sort gate)” value was “low polyreactivity”. With “QVQLVESGGGLVQAGGSLRLSCAASGNTFYPNAMGWYRKAPGKERELVAAISSSGGSTYYADSVKGRFTISRDNAKNTVYLQMNSLKPEDTAVYYRAAEFDYPWSGEYYYWGQGTQVTVSS” the “polyreactivity (PSR sort gate)” value was “high polyreactivity”. In the case of “QVQLVESGGGLVQAGGSLRLSCAASGNTFYWNAMGWYRQAPGKERELVAAITSSGGSTYYADSVKGRITISRDNAKNTVYLQMNSLKPEDTAVYYCNKDIERYVRIYDSWGQGTQVTVSS”, the “polyreactivity (PSR sort gate)” value is reported as “low polyreactivity”. In the case of “QVQLVESGGGLVQAGGSLRLSCAASGNTFYYYAMGWYRQAPGKERELVAAIRRSGGTTYYADSVKGRFTISRDNAKNTVYLQMNSLKPEDTAVYYCAARVYRSYANVEGNYWGQGTQVTVSS”, the “polyreactivity (PSR sort gate)” value is reported as “high polyreactivity”. For “QVQLVESGGGLVQAGGSLRLSCAASGNTFYYYCMGWYRQAPGKERELVAAISSSGTSTYYADSVKGRFTISRDNAKNTVYLQMNSLKPEDTAVYYCARRTDRRTGPMYSWGQGTQVTVSS”, the “polyreactivity (PSR sort gate)” value was “high polyreactivity”. With “QVQLVESGGGLVQAGGSLRLSCAASGNTIDSYAMGWYRQAPGKERELVAAISTSGGSTYYADSVKGRFTISRDNAKNTVYLQMNSLKPEDTAVYYCNATWTITYDYWGQGTQVTVSS” the “polyreactivity (PSR sort gate)” value was “low polyreactivity”. With “QVQLVESGGGLVQAGGSLRLSCAASGNTIIRYPMGWYRQAPGKERELVAAISYSGGRTYYADSVKGRFTISRDNAKNTVYLQMNSLKPEDTAVYYCNAASRYGGDYWGQGTQVTVSS” the “polyreactivity (PSR sort gate)” value was “high polyreactivity”. In the case of “QVQLVESGGGLVQAGGSLRLSCAASGNTLDYYAMGWYRQAPGKEREVVEGIDDRTSTNYADSVKGRFTISRDNAKYTVYLQMNSLKPEDTAVYYCNADDGTVNYTSYYSPAVTYDSWGQGTQVTVSS”, the “polyreactivity (PSR sort gate)” value is reported as “low polyreactivity”. In the case of “QVQLVESGGGLVQAGGSLRLSCAASGNTLGYYAMGWYRQAAGKARELVATICDDGTTYYADSVKGRFTISRDNAMNTVYLQMNSLSPEETAVYYCASVGSAQYSMDYWGDGTQVTVSS”, the “polyreactivity (PSR sort gate)” value is reported as “low polyreactivity”. With “QVQLVESGGGLVQAGGSLRLSCAASGNTLRYNVMGWYRQAPGKERELVAAISGGGSTSYTDSVKGRFTISRDNAKNTVYLQMNSLKPEDTAVYYCAKRSFVGGRGRDSDYWGQGTQVTVSS” the “polyreactivity (PSR sort gate)” value was “low polyreactivity”. For “QVQLVESGGGLVQAGGSLRLSCAASGNTVDGNAMGWYRPAPGKERELVAAINYSGASTYYADSVKGRFTISRDNAKNTVYLQINSLKPEDTAVYYCAADDYTASDRYWHDYWGQGTQVTVSS”, the “polyreactivity (PSR sort gate)” value was “low polyreactivity”. With “QVQLVESGGGLVQAGGSLRLSCAASGNTYLYYGMGWYRQSPGKERDLVAAITQSGGTTYYADSVKGRFTISRDNAKNTVYLQLNSLKQEDTAVYYCAATRYYYYWYVYDDRGDYWGQGTQVTVSS” the “polyreactivity (PSR sort gate)” value was “low polyreactivity”. With “QVQLVESGGGLVQAGGSLRLSCAASGPIFTSNAMGWYRQAPGKERELVAAISRRGTRTYYADSVKGRFTISRDNAKNTVYLQMNSLKPEDTAVYYCAAGWTTRYFGGVDYWGQGTQVTVSS” the “polyreactivity (PSR sort gate)” value was “high polyreactivity”. With “QVQLVESGGGLVQAGGSLRLSCAASGPIFVYYARGWYREAPGKEREFVAAISASGGSTYYADSVKGRFTISRDTAKNTVYLQMNSLKPEDPAVYYCAADRLRNRPRGLREYYWGQGTQVTVSS” the “polyreactivity (PSR sort gate)” value was “low polyreactivity”. In the case of “QVQLVESGGGLVQAGGSLRLSCAASGPILGQYAMGGYRQAPGKERELVAAITYSGGRTYYADSVKGRFTISRDIAKNTVYLQMNSLKPEDTAVYYCAARGRASVERRGGYYYWGQGTQVTVSS”, the “polyreactivity (PSR sort gate)” value is reported as “high polyreactivity”. In the case of “QVQLVESGGGLVQAGGSLRLSCAASGPTFAKNTMGWYRQAPGKERELVAAISWRGGRTYYADSVKGRFTISRDNAKNTVYLQMNSLKPEDTAVYYCAAASTIHRHGMDYWGQGTQVTVSS”, the “polyreactivity (PSR sort gate)” value is reported as “high polyreactivity”. With “QVQLVESGGGLVQAGGSLRLSCAASGPTFGGYTMGWYRQAPGKERELVAAITWSGGRTYYADSVKGRFTISRDNAKNTVYLQMNSLKPEDTAVYFCATSRSRERPLHNGPYYYWGLGTQVTVSS” the “polyreactivity (PSR sort gate)” value was “high polyreactivity”. In the case of “QVQLVESGGGLVQAGGSLRLSCAASGPTFHGYDMGWNRQAPGKERELVARINWSDGRTYYADSVKGRFTISRDNAKNTVYLQMISLKPEDTAVYYCAADKTGSYAPAWYYYWGQGTQVTVSS”, the “polyreactivity (PSR sort gate)” value is reported as “low polyreactivity”. For “QVQLVESGGGLVQAGGSLRLSCAASGPTFRANAMGWYRQAPGKEREMVAAISQRGGNTYYADSVKGRFTISRDKAKNTVYLQMNSLKPEDTAVYYCSADITTYRRGRYEYEYWGQGTQVTVSS”, the “polyreactivity (PSR sort gate)” value was “high polyreactivity”. For “QVQLVESGGGLVQAGGSLRLSCAASGPTFTYNAMGWYRQAPGKERELVATINSVDSTYADSVKGRFTISRDNAKNTVYLQMNSMKPEDTAVYYCNAGFPLSLWLGDYWGQGTQVTVSS”, the “polyreactivity (PSR sort gate)” value was “low polyreactivity”. For “QVQLVESGGGLVQAGGSLRLSCAASGPTFYLYDTMGWYRQAPGKERELVAAISWDDGDTYYADSVKGRFTISRDNAKTTVYLQMNSLKPEDTAVYYCAAEYLSGAHGYWGQGTHVTVSS”, the “polyreactivity (PSR sort gate)” value was “low polyreactivity”. For “QVQLVESGGGLVQAGGSLRLSCAASGPTFYYYAMGWYRQAPGKERELVAAITWSGGSTYYADSVKGRFTISRDNAKNTVYLQMNSLKPEDTAVYYCAADVTYSRYEYWGQGTQVTVSS”, the “polyreactivity (PSR sort gate)” value was “low polyreactivity”.
